Data as given in PMC6863705 (Protein Science : A Publication of the Protein Society, 2019).

Key:
[1] = target: T1, Ssk1-R2-K525A (S. cerevisiae, UniProt Q07084 495-712, K525A); assay: other fluorescence titration
T1 sequence: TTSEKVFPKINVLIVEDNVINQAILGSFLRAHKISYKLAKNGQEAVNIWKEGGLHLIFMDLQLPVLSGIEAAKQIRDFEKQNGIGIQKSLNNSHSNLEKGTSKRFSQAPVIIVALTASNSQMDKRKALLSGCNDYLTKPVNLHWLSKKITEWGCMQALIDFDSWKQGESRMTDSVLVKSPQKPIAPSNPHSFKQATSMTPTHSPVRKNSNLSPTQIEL

[2] = target: T2, Ssk1-R2-W638A (S. cerevisiae, UniProt Q07084 495-712, W638A); assay: other fluorescence titration
T2 sequence: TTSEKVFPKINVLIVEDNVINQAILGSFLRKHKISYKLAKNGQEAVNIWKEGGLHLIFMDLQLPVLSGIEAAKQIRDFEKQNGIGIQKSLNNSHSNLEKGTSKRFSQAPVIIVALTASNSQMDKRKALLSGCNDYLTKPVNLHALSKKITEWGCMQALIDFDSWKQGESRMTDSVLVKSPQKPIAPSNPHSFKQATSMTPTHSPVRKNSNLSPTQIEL

[3] = target: T3, Receiver domain of Ssk1 (Ssk1-R2), wild type (S. cerevisiae, UniProt Q07084 495-712); assay: other fluorescence titration
T3 sequence: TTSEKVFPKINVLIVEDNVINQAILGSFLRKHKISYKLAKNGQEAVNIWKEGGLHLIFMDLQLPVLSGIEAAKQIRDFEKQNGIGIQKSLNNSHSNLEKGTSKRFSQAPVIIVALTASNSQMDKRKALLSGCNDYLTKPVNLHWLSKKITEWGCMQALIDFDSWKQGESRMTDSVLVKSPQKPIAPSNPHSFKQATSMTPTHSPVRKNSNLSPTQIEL

[4] = target: T4, Ssk1-R2-R524A (S. cerevisiae, UniProt Q07084 495-712, R524A); assay: other fluorescence titration
T4 sequence: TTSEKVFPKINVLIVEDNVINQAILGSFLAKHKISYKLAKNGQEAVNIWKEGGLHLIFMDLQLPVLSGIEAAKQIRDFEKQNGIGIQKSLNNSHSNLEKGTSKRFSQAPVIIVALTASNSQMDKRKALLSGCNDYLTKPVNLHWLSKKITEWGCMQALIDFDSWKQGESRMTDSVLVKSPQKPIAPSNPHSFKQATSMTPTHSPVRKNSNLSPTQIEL

[5] = target: T5, Selenomethionine derivative of Ssk1-R2-W638A (S. cerevisiae, UniProt Q07084 495-712, W638A, selenomethionine incorporated); assay: crystal structure
T5 sequence: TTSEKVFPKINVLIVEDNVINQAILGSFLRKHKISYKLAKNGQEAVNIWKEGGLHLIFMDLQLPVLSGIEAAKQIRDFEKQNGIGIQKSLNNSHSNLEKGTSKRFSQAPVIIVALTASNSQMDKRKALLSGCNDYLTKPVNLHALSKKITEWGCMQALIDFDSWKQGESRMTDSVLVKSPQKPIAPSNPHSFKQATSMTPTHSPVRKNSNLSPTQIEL

Binder | Kd [1] [nM] | Kd [2] [nM] | Kd [3] [nM] | Kd [4] [nM] | binding result [5]
Fluoresceinated Ypd1-T12C variant (Ypd1-T12C~F) (natural protein, S. cerevisiae, UniProt Q07688 1-167, looked up, 5-iodoacetamidofluorescein (5-IAF) on the cysteine at 12 (T12C)) MSTIPSEIINWCILNEIISMDDDDSDFSKGLIIQFIDQAQTTFAQMQRQLDGEKNLTELDNLGHFLKGSSAALGLQRIAWVCERIQNLGRKMEHFFPNKTELVNTLSDKSIINGINIDEDDEEIKIQVDDKDENSIYLILIAKALNQSRLEFKLARIELSKYYNTNL | 640 | 219 | 23.7 | 918 | –
Ypd1 (histidine phosphotransfer protein) from S. cerevisiae (natural protein, UniProt Q07688 1-167, looked up) MSTIPSEIINWTILNEIISMDDDDSDFSKGLIIQFIDQAQTTFAQMQRQLDGEKNLTELDNLGHFLKGSSAALGLQRIAWVCERIQNLGRKMEHFFPNKTELVNTLSDKSIINGINIDEDDEEIKIQVDDKDENSIYLILIAKALNQSRLEFKLARIELSKYYNTNL | – | – | – | – | binds
